Molecular target: T1, design #8 (v-SNARE-like protein, v-SP; MPNN-redesigned VAMP2), SEQ ID NO: 8
T1 chain: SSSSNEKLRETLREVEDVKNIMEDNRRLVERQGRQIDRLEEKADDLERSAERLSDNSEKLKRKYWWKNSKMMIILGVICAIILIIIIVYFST
Experiment: cell-based or functional assay

cell-cell fusion assay (reporter luciferase), fold over parental SNARE complex: 10 fold
B1: design #94 (single-chain t-SNARE-like protein, sc-t-SP), SEQ ID NO: 94 (designed binder)
chain: SEREKEIDEGLDRVSEIVKELKKMAEEMRRMIEEQGRRIERIEEKAEEAKEKIEEANERAEKLLKDPGGSGGSEELKKLEKEGEKLKELVEELDREIKELKEGMERLREMFEEAAKLSEEALEIMRRTRKLSEEELEEAKQKAKEQEKEKALKEKGGSGGSGGSEKVKRELAQIEERHQQILELEEKIKELLEMFKELSEKIEEQGQKIDRIEDKVSKAKEHVEKGVEDTKKAVKYQSKARRKKIMIIICCVILGIVIASTVGGIFA

— patent US20250092424A1 (University of Washington, published 2025)
